Test results from patent US20120301469A1 (Ablynx, published 2012).

B1: Nanobody 7B2 (VHH)
VHH: EVQLVESGGGLVQAGDSLRLSCAASGRTFSSYAMGWFRQAPGKEREFVAAISWSDGSTYYADSVKGRFTISRDNAKNTVYLQMNSLKPEDTAVYYCAADLTSTNPGSYIYIWAYDYWGQGTQVTVSS
notes: also called PMP7B2; PRSV7B2
B2: Nanobody 1G3 (VHH)
VHH: EVQLVESGGGLVQAGGSLRLSCEASGRTYSRYGMGWFRQAPGKEREFVAAVSRLSGPRTVYADSVKGRFTISRDNAENTVYLQMNSLKPEDTAVYTCAAELTNRNSGAYYYAWAYDYWGQGTQVTVSS
notes: also called PMP1G3; PRSV1G3

Experiments:
[1] = target: T1, protein F of hRSV strain Long, on virus (inactivated hRSV Long, Hytest #8RSV79; RSV Long LM-2, ATCC VR-26) (human respiratory syncytial virus, …, UniProt P12568 26-574); assay: cell-based or functional assay
[2] = target: T2, protein F of hRSV strain B-1 (on RSV B-1-infected Hep2 cells and on virus) (human respiratory syncytial virus, …, UniProt P13843 26-574); assay: cell-based or functional assay
[3] = target: T1, protein F of hRSV strain Long, on virus …; assay: cell-based or functional assay; remark: listed apart in the source
[4] = target: T2, protein F of hRSV strain B-1 (on RSV …); assay: cell-based or functional assay; remark: listed apart in the source
[5] = target: T3, hRSV FTM-NN (membrane anchorless form of the Long fusion protein, 70 kDa) (human respiratory syncytial virus, …, UniProt P12568 26-524); assay: ELISA on immobilized FTM-NN, periplasmic extract 1:10
T3 construct: also called FTM-NN (Long); hRSV FTM-protein

[6] = target: T3, hRSV FTM-NN (membrane anchorless form …); assay: SPR (Biacore), FTM-NN amine-coupled on CM5 chip, 1:1 Langmuir fit
[7] = target: T2, protein F of hRSV strain B-1 (on RSV …); assay: cell ELISA on RSV B-1-infected Hep2 cells, periplasmic extract 1:50
[8] = target: T2, protein F of hRSV strain B-1 (on RSV …); assay: cell ELISA on RSV B-1-infected Hep2 cells, periplasmic extract 1:200
[9] = target: T3, hRSV FTM-NN (membrane anchorless form …); assay: competition ELISA on FTM-NN, competitor Synagis Mab, purified Nanobody

Binder	RSV micro-neutralization on Long, IC50 [1] [nM]	micro-neutralization of RSV B-1 [2] [µM]	Neutralization Long IC50 [3] [nM]	Neutralization B-1 IC50 [4] [nM]	Binding Long 1:10 PE (Fold blanc) [5] [fold blanc]	Kd [6] [nM]	koff [6] [s⁻¹]	kon [6] [M⁻¹ s⁻¹]	Binding Hep2-B-1 (% control) 1:50 PE [7] [% control]	Binding Hep2-B-1 (% control) 1:200 PE [8] [% control]	IC50 [9] [nM]
B1	88	> 10	108	> 10000	4.7	1.5	0.00049	340000	61	41	1.93
B2		> 10	413	> 10000	3.4				52	45	72.5
